{"source": "paper PMC6863704", "about": "(Protein Science : A Publication of the Protein Society, 2019)", "proteins": {"B1": {"name": "p50 dimerization domain of NFκB1 (residues 241–351), long construct with non-native N-terminal extension (domain or fragment, mouse)", "chain": "VGTGSNDDDDKAPNASNLKIVRMDRTAGCVTGGEEIYLLCDKVQKDDIQIRFYEEEENGGVWEGFGDFSPTDVHRQFAIVFKTPKYKDVNITKPASVFVQLRRKSDLETSEPKPFLYYPEI"}}, "target": "the molecule itself", "experiment": "NMR", "data": [{"protein": "B1", "values": [{"measurement": "stoichiometry N", "value": 2}]}]}
